Laboratory results taken from US20180305449A1 (ONCOMED PHARMACEUTICALS, published 2018).
Positions count from the first letter of the chain named. Like-named read-outs stand apart in the source and are kept apart here. One block for each binder: values may come before it.

What was measured:
[1] = molecular target: T1, Recombinant human DLL4-Fc (human, UniProt Q9NR61 27-522, limits assumed); experiment: SPR (Biacore 2000), human DLL4-Fc amine-coupled on CM5 chip, antibody as analyte
T1 construct: also called hDLL4; hDLL4-Fc; not shown: Fc portion
T1 sequence (Q9NR61 27-522 limits assumed): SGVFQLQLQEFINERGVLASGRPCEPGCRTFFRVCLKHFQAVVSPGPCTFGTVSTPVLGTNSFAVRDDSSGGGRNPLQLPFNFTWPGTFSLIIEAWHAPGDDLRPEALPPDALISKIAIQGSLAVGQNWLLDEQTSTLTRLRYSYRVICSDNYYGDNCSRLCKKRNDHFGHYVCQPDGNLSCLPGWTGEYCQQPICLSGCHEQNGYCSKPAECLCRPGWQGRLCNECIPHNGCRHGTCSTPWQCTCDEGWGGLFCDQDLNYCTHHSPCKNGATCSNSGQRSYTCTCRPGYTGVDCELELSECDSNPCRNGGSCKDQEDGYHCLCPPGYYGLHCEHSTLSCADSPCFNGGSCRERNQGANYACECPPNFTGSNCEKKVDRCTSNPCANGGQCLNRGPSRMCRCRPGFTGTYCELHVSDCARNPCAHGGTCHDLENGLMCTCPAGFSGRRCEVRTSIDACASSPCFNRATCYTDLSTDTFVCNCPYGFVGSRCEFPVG
Experimental: (§1) The KDs of parental antibodies anti-VEGF 219R45 (IgG format), anti-DLL4 21R79 (IgG format), anti-DLL4 21M18 (IgG format) and bispecific antibodies 219R45-MB-21M18 and 219R45-MB-21R79 were determined using a Biacore 2000 system from Biacore LifeSciences (GE Healthcare). Recombinant human DLL4-Fc or mouse DLL4-Fc proteins were immobilized on CM5 carboxyl chips using standard amine-based chemistry (NHS/EDC) and blocked with ethanolamine Recombinant human VEGF₁₆₅ or mouse VEGF₁₆₅ were biotinylated and immobilized on streptavidin chips. The antibodies were serially diluted 2-fold from 100 nM to 0.78 nM in HBS-P (0.01M HEPES pH7.4, 0.15M NaCl, 0.005% v/v Polysorbate 20). For each antibody, all 8 dilutions were sequentially injected over a specific chip. Kinetic data were collected over time and were fit using the simultaneous global fit equation to yield affinity constants (KD values) for each bispecific antibody.

[2] = molecular target: T2, Recombinant mouse VEGF165 (mouse, UniProt Q00731-2 27-190); experiment: SPR (Biacore 2000), biotinylated mouse VEGF165 on streptavidin chip, antibody as analyte
T2 construct: also called mVEGF
T2 sequence (looked up): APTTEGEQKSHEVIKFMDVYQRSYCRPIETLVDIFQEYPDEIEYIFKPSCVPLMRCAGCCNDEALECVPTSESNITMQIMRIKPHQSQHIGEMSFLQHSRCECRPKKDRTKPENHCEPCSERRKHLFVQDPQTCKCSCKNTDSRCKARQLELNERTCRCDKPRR
Experimental: as §1

[3] = molecular target: T3, Recombinant human VEGF165 (human, UniProt P15692-4 27-191); experiment: HTRF bridging assay: Europium cryptate-labeled hVEGF165 and d2-labeled hDLL4-Fc; signal needs both bound at once
T3 construct: also called hVEGF; hVEGF165
Experimental: (§2) To characterize the binding capabilities of certain antibodies and/or antibody mixtures to both VEGF and DLL4, homogeneous time resolved fluorescence (HTRF) assays were performed. Antibodies tested were anti-VEGF/anti-DLL4 bispecific antibodies 219R45-MB-21M18 and 219R45-MB-21R79, parental antibodies 219R45 (anti-VEGF), 21M18 (anti-DLL4), 21R79 (anti-DLL4), a combination of 219R45 and 21M18, or a combination of 219R45 and 21R79. The antibodies or antibody mixtures were serially diluted 2-fold from 3000 nM to 2.9 nM in binding buffer (1×PBS, 0.1% gelatin, 0.1% Polysorbate 20, 400 mM potassium fluoride) and placed in a white 96-well plate. An equal volume of solution containing 4 μg/ml of d2-labeled hDLL4-Fc and 21.4 ng/ml Europium crypate-labeled hVEGF₁₆₅ was added to each well for a final volume of 100 μl (final concentrations of acceptor and donor fluorophores were 2 μg/ml and 10.7 ng/ml, respectively). The assay plates were incubated for 2 hours to overnight and read on a SpectraMax M5e Microplate reader (Molecular Devices, Sunnyvale Calif.) at an excitation wavelength of 314 nm.

[4] = molecular target: T4, biotin-DLL4-hFc (UniProt Q9NR61 27-522, limits assumed, biotinylated (site not stated)); experiment: Bispecific bridging ELISA: antibody pre-incubated with biotin-DLL4-hFc, captured on VEGF (ATGEN)-coated plate, streptavidin-HRP; potency relative to a reference anti-VEGF/anti-DLL4 bispecific antibody
T4 construct: not shown: human Fc (hFc)
T4 sequence (Q9NR61 27-522 limits assumed): as the sequence (Q9NR61 27-522 limits assumed) above
Experimental: (§3) VEGF (ATGEN, South Korea) was coated onto Nunc maxisorb plates at 2 ug/ml (100 μl/well) and incubated overnight at 2-8° C. Bispecific antibodies 219R45-MB-21M18, 219R45-MB-21R79, 219R45-MB-21R75, and 219R45-MB-21R83 were diluted in blocking buffer (lx PBS, 0.1% gelatin, 0.1% Polysorbate-20, pH 7.4) containing 2 μg/ml biotin-DLL4-hFc. The antibodies were serially diluted 3-fold from 500 ng/ml to 0.008 ng/ml. The antibody samples were incubated for 2 hours in blocking buffer containing the biotin-DLL4-hFc. After incubation, the antibody samples were transferred to the VEGF-coated assay plate (100 ul/well) and incubated for 2 hours. Streptavidin-HRP (Jackson ImmunoResearch, West Grove, Pa.) was added to each well and incubated for 1 hr. TMB substrate was added to the wells with a 10 minute color development and the reaction was stopped with 2M sulfuric acid. Absorbance was read at 450-650 nm and the data analyzed using the 4-parameter fit within the Softmax Pro analysis program (Molecular Devices, Sunnyvale, Calif.).

[5] = molecular target: T1, Recombinant human DLL4-Fc; experiment: SPR (Biacore 2000), human DLL4-Fc amine-coupled on CM5 chip, antibody as analyte; remark: listed apart in the source
Experimental: as §1
Several additional anti-DLL4 antibodies were identified that had binding affinities intermediate to the KDs of 21M18 and 21R79. Two of these anti-DLL4 antibodies were used to produce anti-VEGF/anti-DLL4 bispecific antibodies 219R45-MB-21R75 and 219R45-MB-21R83. Using the Biacore 2000 system as described above, the KDs of the bispecific antibodies 219R45-MB-21R75 and 219R45-MB-21R83 to human DLL4 were determined.

[6] = molecular target: T4, biotin-DLL4-hFc; experiment: bispecific sandwich ELISA: antibody pre-incubated with 2 ug/ml biotin-DLL4-hFc, captured on VEGF-coated plate, detected with streptavidin-HRP
Experimental: FIG. 7. Bispecific antibody ELISA. Bispecific antibodies 219R45-MB-21M18, 219R45-MB-21R79, 219R45-MB-21R75, and 219R45-MB-21R83 were diluted in blocking buffer (lx PBS, 0.1% gelatin, 0.1% Polysorbate-20, pH 7.4) containing 2 μg/ml biotin-DLL4-hFc. The antibodies were serially diluted 3-fold from 500 ng/ml to 0.008 ng/ml. The antibody samples were incubated for 2 hours in blocking buffer containing the biotin-DLL4-hFc. After incubation, the antibody samples were transferred to a VEGF-coated assay plate (100 ul/well) and incubated for 2 hours. Streptavidin-HRP was added to each well and incubated for 1 hr. TMB substrate was added to the wells with a 10 minute color development and the reaction was stopped with 2M sulfuric acid. Absorbance was read at 450-650 nm and the data analyzed using the 4-parameter fit within the Softmax Pro analysis program.
as §3

[7] = molecular target: T3, Recombinant human VEGF165; experiment: SPR (Biacore 2000), biotinylated human VEGF165 on streptavidin chip, antibody as analyte
Experimental: as §1

[8] = molecular target: T1, Recombinant human DLL4-Fc; experiment: HTRF bridging assay: Europium cryptate-labeled hVEGF165 and d2-labeled hDLL4-Fc; signal needs both bound at once
Experimental: as §2

B1: anti-DLL4 antibody 21M18 (parental, IgG format) (antibody, V domains shown)
VH: QVQLVQSGAEVKKPGASVKISCKASGYSFTAYYIHWVKQAPGQGLEWIGYISSYNGATNYNQKFKGRVTFTTDTSTSTAYMELRSLRSDDTAVYYCARDYDYDVGMDYWGQGTLVTVSS
VL: DIVMTQSPDSLAVSLGERATISCRASESVDNYGISFMKWFQQKPGQPPKLLIYAASNQGSGVPDRFSGSGSGTDFTLTISSLQAEDVAVYYCQQSKEVPWTFGGGTKVEIK
notes: Tested in IgG format; also called anti-hDLL4 antibody 21M18
- Kd [1]: < 0.1 nM
- binding result [2]: no binding (tested: 100 nM (highest concentration injected))
- binding result [3]: no binding

B2: anti-VEGF/anti-DLL4 bispecific antibody 219R45-MB-21R83 (bispecific antibody, human IgG2)
heavy 1: QVQLVQSGAEVKKPGASVKVSCKASGYTFTNYWMHWVRQAPGQGLEWMGDINPSNGRTSYKEKFKRRVTLSVDKSSSTAYMELSSLRSEDTAVYFCTIHYDDKYYPLMDYWGQGTLVTVSSASTKGPSVFPLAPCSRSTSESTAALGCLVKDYFPEPVTVSWNSGALTSGVHTFPAVLQSSGLYSLSSVVTVPSSNFGTQTYTCNVDHKPSNTKVDKTVERKCCVECPPCPAPPVAGPSVFLFPPKPKDTLMISRTPEVTCVVVDVSHEDPEVQFNWYVDGVEVHNAKTKPREEQFNSTFRVVSVLTVVHQDWLNGKEYKCKVSNKGLPAPIEKTISKTKGQPREPQVYTLPPSREKMTKNQVSLTCLVKGFYPSDIAVEWESNGQPENNYKTTPPMLKSDGSFFLYSKLTVDKSRWQQGNVFSCSVMHEALHNHYTQKSLSLSPGK
heavy 2: QVQLVQSGAEVKKPGASVKISCKASGYSFTAYYIHWVKQAPGQGLEWIGYISNYNRATNYNQKFKGRVTFTTDTSTSTAYMELRSLRSDDTAVYYCARDYDYDVGMDYWGQGTLVTVSSASTKGPSVFPLAPCSRSTSESTAALGCLVKDYFPEPVTVSWNSGALTSGVHTFPAVLQSSGLYSLSSVVTVPSSNFGTQTYTCNVDHKPSNTKVDKTVERKCCVECPPCPAPPVAGPSVFLFPPKPKDTLMISRTPEVTCVVVDVSHEDPEVQFNWYVDGVEVHNAKTKPREEQFNSTFRVVSVLTVVHQDWLNGKEYKCKVSNKGLPAPIEKTISKTKGQPREPQVYTLPPSREEMTKNQVSLTCLVEGFYPSDIAVEWESNGQPENNYKTTPPMLDSDGSFFLYSELTVDKSRWQQGNVFSCSVMHEALHNHYTQKSLSLSPGK
light: DIVMTQSPDSLAVSLGERATISCRASESVDNYGISFMKWFQQKPGQPPKLLIYAASNQGSGVPDRFSGSGSGTDFTLTISSLQAEDVAVYYCQQSKEVPWTFGGGTKVEIKRTVAAPSVIFPPSDEQLKSGTASVVCLLNNFYPREAKVQWKVDNALQSGNSQESVTEQDSKDSTYSLSSTLTLSKADYEKHKVYACEVTHQGLSSPVTKSFNRGEC
notes: Monovalent/bispecific IgG2 heterodimer with charge-modified CH3 domains and two identical light chains
- Relative Potency (%) [4]: 222%
- Kd [5]: 1.3 nM
- EC50 (read off the curve) [6]: ~1 ng/mL

B6: anti-DLL4 antibody 21R79 (parental, IgG format) (antibody, V domains shown)
VH: B1 VH with S52A, S53N, G56R
VL: DIVMTQSPDSLAVSLGERATISCRASESVDNYGISFMKWFQQKPGQPPKLLIYAASNQGSGVPDRFSGSGSGTDFTLTISSLQAEDVAVYYCQQSKEVPWTFGGGTKVEIKR
notes: Tested as the parental antibody in IgG format
- Kd [1]: < 0.1 nM
- binding result [2]: no binding (tested: 100 nM (highest concentration injected))
- binding result [3]: no binding

The remaining lines, values ahead:

- Kd [1]: 16 nM
- Kd [7]: 0.36 nM
- Kd [2]: 25.5 nM
- Relative Potency (%) [4]: 67%
- Kd [5]: 16 nM
- EC50 (read off the curve) [6]: ~5 ng/mL
B3: anti-VEGF/anti-DLL4 bispecific antibody 219R45-MB-21M18 (bispecific antibody, human IgG2)
heavy 1: B2 heavy 1
heavy 2: B2 heavy 2 with N53S, R56G
light: B2 light
notes: Monovalent/bispecific (MB) IgG2 heterodimer with charge-modified CH3 domains and two identical light chains

- Relative Potency (%) [4]: 422%
- Kd [5]: 5.1 nM
- EC50 (read off the curve) [6]: ~0.8 ng/mL
B4: anti-VEGF/anti-DLL4 bispecific antibody 219R45-MB-21R75 (bispecific antibody, human IgG2)
heavy 1: B2 heavy 1
heavy 2: B2 heavy 2 with S52A, N53G, N55K, R56D
light: B2 light
notes: as for B2

- Kd [7]: 0.67 nM
- Kd [2]: 22.9 nM
- binding result [8]: no binding
B5: anti-VEGF antibody 219R45 (parental, IgG format) (antibody, V domains shown)
VH: QVQLVQSGAEVKKPGASVKVSCKASGYTFTNYWMHWVRQAPGQGLEWMGDINPSNGRTSYKEKFKRRVTLSVDKSSSTAYMELSSLRSEDTAVYFCTIHYDDKYYPLMDYWGQGTLVTVSS
VL: B6 VL
notes: Tested as the bivalent parental antibody in IgG format; also called parental anti-VEGF antibody 219R45
